Here are results for 2 molecules from patent publication US20020106678A1 (published 2002).

Assay [1] has as its target T1, human G protein β2 subunit (human, UniProt P62879 1-340). The assay is described as follows: tryptic proteolysis protection assay of co-translated β and γ subunits (βγ dimer formation). How it is done:
(§1) βγ interaction was assessed by a tryptic proteolysis assay. Plasmid DNA (1 μg) for each of the β and γ subunits were co-transcribed and co-translated in the TNT-coupled rabbit reticulocyte lysate system (Promega, Madison, Wis.). The plasmid DNA for each of the γ subunits was linearized to limit the generation of translated products of higher molecular weight. […] To increase levels of the γ₁₀ and γ₁₁ subunits 2 μg of capped RNA were added to the co-transcribed β-γ mix. Alternatively, γ₁₀ and γ₁₁ subunits that had been translated separately were added to the co-translated β-γ mix. For tryptic digestion, 5 or 10 μl aliquots of the co-translated β-γ mix were digested by addition of 1 μl trypsin (1 μg) in a final volume of 20 μl (with 50 mM Na-HEPES, pH 8.0) After incubation for 1 hour at 30° C., the digestions were stopped by addition of Laemmli sample buffer and boiling for 3 minutes. Protected fragments of β were visualized by running samples on 15% SDS-PAGE gels. After electrophoresis, gels were fixed in 40% methanol/10% acetic acid mix, soaked in ENHANCE (DuPont-NEN, Boston, Mass.), and dried. The dried gels were exposed for 8 to 48 hours at −80° C.

Assay [2] has as its target T1, human G protein β2 subunit. The assay is described as follows: tryptic proteolysis protection assay of co-translated β and γ subunits (rabbit reticulocyte lysate, SDS-PAGE). How it is done:
as §1

T1 sequence (P62879 whole entry): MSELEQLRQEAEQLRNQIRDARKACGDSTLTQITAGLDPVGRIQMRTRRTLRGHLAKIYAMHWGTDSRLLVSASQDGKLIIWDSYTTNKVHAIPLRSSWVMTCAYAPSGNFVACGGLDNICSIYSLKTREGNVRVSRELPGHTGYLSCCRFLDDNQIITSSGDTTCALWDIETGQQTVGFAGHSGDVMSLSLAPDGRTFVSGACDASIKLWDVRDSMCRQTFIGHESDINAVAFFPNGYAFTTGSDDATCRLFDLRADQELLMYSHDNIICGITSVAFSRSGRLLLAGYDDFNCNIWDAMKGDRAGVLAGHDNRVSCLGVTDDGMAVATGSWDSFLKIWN

B1: human G protein γ4 subunit (other)
chain: MKEGMSNNSTTSISQARKAVEQLKMEACMDRVKVSQAAADLLAYCEAHVREDPLIIPVPASENPFREKKFFCTIL
modifications: modified by a geranylgeranyl group (residue not stated)
As for B1, the binding result in assay [1] was “binds”.

B2: human G protein γ11 subunit (other)
chain: MPALHIEDLPEKEKLKMEVEQLRKEVKLQRQQVSKCSEEIKNYIEERSGEDPLVKGIPEDKNPFKEKGSCVIS
modifications: modified by a farnesyl group (residue not stated)
As to B2, the binding result in assay [2] is given as “no binding”.
